PMC11804915, “Single-stranded DNA binding to the transcription factor PafBC triggers the mycobacterial DNA damage response”

Columns and labels:
Assay in all cases: EMSA; up to 16 uM; ssDNA EMSA: 22.5 mM Hepes-KOH pH 7.8, 135 mM NaCl, 20 mM KCl, 5 mM MgCl2, 1 mM DTT, 37 C 15 min, 10 nM DNA, 0-16 uM PafBC; RNAP EMSA: 20 mM Hepes-NaOH pH 8, 100 mM K-acetate, 36 mM NaCl, 10 mM MgCl2, 2 mM DTT, 37 C 30 min
Details in all cases: protein: recombinant; tags: C-terminal Strep on PafC; copies: 1;1; label: FAM; single strand
PafBC WYL RR = target: T1, PafBC WYL RR (Mycobacterium smegmatis, UniProt A4ZHT0;A0QZ41 1-331;1-318, R211A;R214A;R201A;R204A)
T1 sequence 1: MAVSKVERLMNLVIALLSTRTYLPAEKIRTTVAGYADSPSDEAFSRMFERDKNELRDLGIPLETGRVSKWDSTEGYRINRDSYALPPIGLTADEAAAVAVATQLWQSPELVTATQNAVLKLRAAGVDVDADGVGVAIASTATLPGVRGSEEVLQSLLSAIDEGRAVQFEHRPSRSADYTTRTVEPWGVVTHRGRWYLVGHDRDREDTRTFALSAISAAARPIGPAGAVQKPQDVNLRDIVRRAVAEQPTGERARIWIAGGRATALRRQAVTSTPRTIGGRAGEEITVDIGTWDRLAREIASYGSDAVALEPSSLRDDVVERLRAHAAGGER
T1 sequence 2: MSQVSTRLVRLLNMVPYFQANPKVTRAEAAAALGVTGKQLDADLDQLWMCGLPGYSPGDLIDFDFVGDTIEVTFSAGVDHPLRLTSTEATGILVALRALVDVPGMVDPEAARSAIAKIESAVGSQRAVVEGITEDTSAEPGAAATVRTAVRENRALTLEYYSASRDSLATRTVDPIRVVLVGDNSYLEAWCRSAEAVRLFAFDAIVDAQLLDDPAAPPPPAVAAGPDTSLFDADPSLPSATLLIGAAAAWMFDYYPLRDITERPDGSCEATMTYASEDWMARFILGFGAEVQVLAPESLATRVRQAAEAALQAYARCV

PafBC, PafB WYL variant = target: T2, PafBC, PafB WYL variant (Mycobacterium smegmatis, UniProt A4ZHT0;A0QZ41 1-331;1-318, R214A;PafB:R211A)
T2 sequence 1: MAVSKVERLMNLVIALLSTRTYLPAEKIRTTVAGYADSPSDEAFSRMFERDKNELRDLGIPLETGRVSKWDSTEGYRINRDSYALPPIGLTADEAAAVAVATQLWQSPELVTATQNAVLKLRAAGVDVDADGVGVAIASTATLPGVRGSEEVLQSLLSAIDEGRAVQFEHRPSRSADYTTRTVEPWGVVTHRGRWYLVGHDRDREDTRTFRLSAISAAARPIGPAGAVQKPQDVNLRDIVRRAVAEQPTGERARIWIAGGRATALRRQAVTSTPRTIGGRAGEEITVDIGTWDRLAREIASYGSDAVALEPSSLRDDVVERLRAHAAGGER
T2 sequence 2: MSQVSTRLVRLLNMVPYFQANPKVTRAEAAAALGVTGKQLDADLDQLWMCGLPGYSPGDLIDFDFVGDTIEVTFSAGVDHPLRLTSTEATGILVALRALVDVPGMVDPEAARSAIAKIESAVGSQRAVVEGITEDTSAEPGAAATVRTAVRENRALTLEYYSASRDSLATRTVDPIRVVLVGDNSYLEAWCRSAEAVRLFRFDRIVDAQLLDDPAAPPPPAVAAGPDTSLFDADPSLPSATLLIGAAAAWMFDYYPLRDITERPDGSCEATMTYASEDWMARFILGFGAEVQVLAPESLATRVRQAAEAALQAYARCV

PafBC, PafB Y196A = target: T3, PafBC, PafB Y196A (Mycobacterium smegmatis, UniProt A4ZHT0;A0QZ41 1-331;1-318, Y196A)
T3 sequence 1: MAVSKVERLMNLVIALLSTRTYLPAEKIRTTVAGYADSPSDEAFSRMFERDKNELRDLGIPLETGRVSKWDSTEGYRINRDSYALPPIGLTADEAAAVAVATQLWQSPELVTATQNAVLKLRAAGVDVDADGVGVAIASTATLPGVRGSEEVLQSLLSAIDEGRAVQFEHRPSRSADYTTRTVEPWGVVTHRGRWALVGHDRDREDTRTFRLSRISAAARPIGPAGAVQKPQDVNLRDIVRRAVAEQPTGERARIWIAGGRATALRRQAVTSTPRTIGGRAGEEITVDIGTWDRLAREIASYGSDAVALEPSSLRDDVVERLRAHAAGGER
T3 sequence 2: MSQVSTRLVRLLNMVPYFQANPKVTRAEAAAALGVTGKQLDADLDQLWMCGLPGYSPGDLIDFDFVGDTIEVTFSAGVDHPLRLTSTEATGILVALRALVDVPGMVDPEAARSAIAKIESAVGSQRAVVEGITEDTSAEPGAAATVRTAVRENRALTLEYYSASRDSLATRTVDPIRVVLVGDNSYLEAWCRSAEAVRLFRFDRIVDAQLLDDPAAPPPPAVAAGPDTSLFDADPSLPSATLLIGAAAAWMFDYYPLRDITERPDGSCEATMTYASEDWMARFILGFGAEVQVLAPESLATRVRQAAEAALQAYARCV

PafBC, PafB R181A = target: T4, PafBC, PafB R181A (Mycobacterium smegmatis, UniProt A4ZHT0;A0QZ41 1-331;1-318, R181A)
T4 sequence 1: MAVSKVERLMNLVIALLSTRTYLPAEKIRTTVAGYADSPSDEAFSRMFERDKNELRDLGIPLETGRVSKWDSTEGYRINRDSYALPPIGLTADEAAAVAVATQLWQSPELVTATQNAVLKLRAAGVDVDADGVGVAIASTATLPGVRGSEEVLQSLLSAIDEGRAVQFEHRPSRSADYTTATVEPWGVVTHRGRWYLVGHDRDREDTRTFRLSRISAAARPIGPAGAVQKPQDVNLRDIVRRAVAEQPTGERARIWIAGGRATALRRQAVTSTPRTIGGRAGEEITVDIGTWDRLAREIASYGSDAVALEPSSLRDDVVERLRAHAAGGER
T4 sequence 2: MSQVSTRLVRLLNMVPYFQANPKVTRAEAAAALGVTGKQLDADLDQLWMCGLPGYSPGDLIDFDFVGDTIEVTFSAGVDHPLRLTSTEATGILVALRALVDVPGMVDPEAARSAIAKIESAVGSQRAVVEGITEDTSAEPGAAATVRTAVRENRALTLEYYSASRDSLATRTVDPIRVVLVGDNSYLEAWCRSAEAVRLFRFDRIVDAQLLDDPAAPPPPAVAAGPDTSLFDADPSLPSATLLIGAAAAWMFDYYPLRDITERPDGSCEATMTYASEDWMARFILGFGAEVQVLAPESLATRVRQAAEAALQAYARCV

Measured: binding result

B1: dT20 ssDNA (ssDNA)
DNA: TTTTTTTTTTTTTTTTTTTT
no binding: all assays above
